The values below come from PMC2581593 (The Journal of Biological Chemistry, 2008).

This experiment has as its target t-SNARE heterodimer (mouse SNAP-25B and rat syntaxin 1A), reconstituted into vesicles (rat | mouse, UniProt P32851;P60879-1). As to the kind of experiment: co-flotation.

Chain of t-SNARE heterodimer (mouse SNAP-25B and rat syntaxin 1A), reconstituted into vesicles (P32851 whole entry, chain 1 of 2): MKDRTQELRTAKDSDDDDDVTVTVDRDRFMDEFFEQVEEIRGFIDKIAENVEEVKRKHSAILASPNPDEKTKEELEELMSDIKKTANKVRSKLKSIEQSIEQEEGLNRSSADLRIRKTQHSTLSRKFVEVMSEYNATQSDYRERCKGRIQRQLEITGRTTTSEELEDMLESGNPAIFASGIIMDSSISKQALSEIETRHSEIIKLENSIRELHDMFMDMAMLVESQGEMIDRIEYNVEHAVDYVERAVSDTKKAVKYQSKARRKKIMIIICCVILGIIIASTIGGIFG
Chain of t-SNARE heterodimer (mouse SNAP-25B and rat syntaxin 1A), reconstituted into vesicles (P60879 whole entry, chain 2 of 2): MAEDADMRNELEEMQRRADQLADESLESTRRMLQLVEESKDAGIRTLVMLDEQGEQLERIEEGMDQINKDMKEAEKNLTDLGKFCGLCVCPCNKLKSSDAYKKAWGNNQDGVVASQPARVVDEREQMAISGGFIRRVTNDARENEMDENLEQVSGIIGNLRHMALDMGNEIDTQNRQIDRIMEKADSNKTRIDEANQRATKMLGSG

B1: syt 1 C2AB T328A (domain or fragment)
chain: KGGKNAINMKDVKDLGKTMKDQALKDDDAETGLTDGEEKEEPKEEEKLGKLQYSLDYDFQNNQLLVGIIQAAELPALDMGGTSDPYVKVFLLPDKKKKFETKVHRKTLNPVFNEQFTFKVPYSELGGKTLVMAVYDFDRFSKHDIIGEFKVPMNTVDFGHVTEEWRDLQSAEKEEQEKLGDICFSLRYVPTAGKLTVVILEAKNLKKMDVGGLSDPYVKIHLMQNGKRLKKKKATIKKNTLNPYYNESFSFEVPFEQIQKVQVVVTVLDYDKIGKNDAIGKVFVGYNSTGAELRHWSDMLANPRRPIAQWHTLQVEEEVDAMLAVKK
Take B1: the binding result was “binds”.

B2: syt 1 C2AB E341A (domain or fragment)
chain: KGGKNAINMKDVKDLGKTMKDQALKDDDAETGLTDGEEKEEPKEEEKLGKLQYSLDYDFQNNQLLVGIIQAAELPALDMGGTSDPYVKVFLLPDKKKKFETKVHRKTLNPVFNEQFTFKVPYSELGGKTLVMAVYDFDRFSKHDIIGEFKVPMNTVDFGHVTEEWRDLQSAEKEEQEKLGDICFSLRYVPTAGKLTVVILEAKNLKKMDVGGLSDPYVKIHLMQNGKRLKKKKTTIKKNTLNPYYNASFSFEVPFEQIQKVQVVVTVLDYDKIGKNDAIGKVFVGYNSTGAELRHWSDMLANPRRPIAQWHTLQVEEEVDAMLAVKK
For B2, the binding result is “binds”.

B3: syt 1 C2AB K313R/K325R/K327R (domain or fragment)
chain: KGGKNAINMKDVKDLGKTMKDQALKDDDAETGLTDGEEKEEPKEEEKLGKLQYSLDYDFQNNQLLVGIIQAAELPALDMGGTSDPYVKVFLLPDKKKKFETKVHRKTLNPVFNEQFTFKVPYSELGGKTLVMAVYDFDRFSKHDIIGEFKVPMNTVDFGHVTEEWRDLQSAEKEEQEKLGDICFSLRYVPTAGKLTVVILEAKNLKKMDVGGLSDPYVRIHLMQNGKRLKRKRTTIKKNTLNPYYNESFSFEVPFEQIQKVQVVVTVLDYDKIGKNDAIGKVFVGYNSTGAELRHWSDMLANPRRPIAQWHTLQVEEEVDAMLAVKK
As for B3, the binding result was “binds”.
